Measured values: paper PMC12609122
Values belong to the substance of their own block, whether it stands above or below them.

Columns and labels:
[1] = biological target: Tha4 E10A F41CA45C (Pisum sativum); experiment: cross-linking; radiolabelled double-Cys Tha4 integrated into NEM-treated pea thylakoids; 0.25 mM BMOE, 10 min; four conditions: with or without precursor (V-20F)tOE17 (1.5 uM), with PMF (light, 15 °C) or without (dark, on ice; 0.5 uM nigericin and 1 uM valinomycin); SDS-PAGE and fluorography; result as told over the conditions
[2] = biological target: Tha4 E10D V8CP9C (Pisum sativum); experiment: as above
[3] = biological target: Tha4 E10D K39CQ43C (Pisum sativum); experiment: as above
[4] = biological target: Tha4 E10A V8CP9C (Pisum sativum); experiment: as above
[5] = biological target: Tha4 V13CI14C (E10 background) (Pisum sativum); experiment: as above
[6] = biological target: Tha4 E10D P56CP58C (Pisum sativum); experiment: as above
[7] = biological target: Tha4 E10A A18CL20C (Pisum sativum); experiment: cross-linking; as a1, the sample with the functional precursor (V-20F)tOE17 and with PMF (light)
[8] = biological target: Tha4 E10A V21CG23C (Pisum sativum); experiment: cross-linking; radiolabelled double-Cys Tha4 integrated into NEM-treated pea thylakoids; 0.25 mM BMOE, 10 min; four conditions: with or without precursor (V-20F)tOE17 (1.5 uM), with PMF (light, 15 °C) or without (dark, on ice; 0.5 uM nigericin and 1 uM valinomycin); SDS-PAGE and fluorography; result as told over the conditions
[9] = biological target: Tha4 V8CP9C (E10 background) (Pisum sativum); experiment: cross-linking; as a1, the samples with the functional precursor (V-20F)tOE17 (1.5 uM), with or without PMF
[10] = biological target: Tha4 V8CP9C (E10 background) (Pisum sativum); experiment: cross-linking; radiolabelled double-Cys Tha4 integrated into NEM-treated pea thylakoids; 0.25 mM BMOE, 10 min; four conditions: with or without precursor (V-20F)tOE17 (1.5 uM), with PMF (light, 15 °C) or without (dark, on ice; 0.5 uM nigericin and 1 uM valinomycin); SDS-PAGE and fluorography; result as told over the conditions
[11] = biological target: Tha4 E10A P56CP58C (Pisum sativum); experiment: as above
[12] = biological target: Tha4 V21CG23C (E10 background) (Pisum sativum); experiment: as above
[13] = biological target: Tha4 P56CP58C (E10 background) (Pisum sativum); experiment: as above
[14] = biological target: Tha4 A65CT78C (E10 background) (Pisum sativum); experiment: as above

Substance: Tha4 E10A F41CA45C (natural protein)
stoichiometry N [1]: < 6

Substance: Tha4 E10D K39CQ43C (natural protein)
stoichiometry N [3]: < 4

Substance: Tha4 V13CI14C (E10 background) (natural protein)
stoichiometry N [5]: < 6

Substance: Tha4 E10D P56CP58C (natural protein)
stoichiometry N [6]: < 4

Substance: Tha4 V8CP9C (E10 background) (natural protein)
stoichiometry N [9]: < 6
stoichiometry N [10]: < 4

Substance: Tha4 E10A P56CP58C (natural protein)
stoichiometry N [11]: < 4

Substance: Tha4 A65CT78C (E10 background) (natural protein)
stoichiometry N [14]: < 5

Results, then the substance that gave them:

stoichiometry N [2]: < 6
Substance: Tha4 E10D V8CP9C (natural protein)

stoichiometry N [4]: < 6
Substance: Tha4 E10A V8CP9C (natural protein)

stoichiometry N [7]: < 4
Substance: Tha4 E10A A18CL20C (natural protein)

stoichiometry N [8]: < 10
Substance: Tha4 E10A V21CG23C (natural protein)

bands in the oligomer ladder [12]: < 6 bands
Substance: Tha4 V21CG23C (E10 background) (natural protein)

stoichiometry N [13]: < 4
Substance: Tha4 P56CP58C (E10 background) (natural protein)
